Test [1] has as its system anti-AChR antibodies from MG sera. The test is described as follows: Immunoadsorption of anti-AChR antibodies from MG sera by CNBr-Sepharose-immobilized subunit domains, RIA with human AChR from TE671 cells. Type of test: binding. Particulars: for percentage of anti-AChR antibodies eliminated, best-adsorbed sera: 13 of 64 (20%) MG sera, 2.5 ul serum. The protocol: FIG. 6 illustrates the immunoadsorption of anti-AChR antibodies from MG sera using immobilized alpha1-210 (black bars), gamma1-218 (grey bars) and epsilon1-219 (blank bars). Each subunit has been expressed in the yeast Pichia pastoris and the purified proteins have been covalently immobilized on CNBr-Sepharose beads. 64 MG positive sera were assayed for binding to human AChR after incubation with alpha1-210 immobilized on CNBr-Sepharose (together with BSA) or with just BSA immobilized on the same insoluble matrix. 2.5 ul of each MG patient serum were incubated with 0.2 ug immobilized alpha1-210 mixed with BSA or the same amount of BSA at […] for 2-3h (in a total volume of 0.16 ml) followed by centrifugation. Samples of the supernatants, each containing an amount corresponding to 0.9 ul of the treated MG sera were subsequently used in a typical RIA MG diagnostic test (Lindstrom et al., Meth. Enzymol. 74, 432460, 1981) with human AChR from TE671 cells. The percentage of immunoadsorption was estimated as described in the Example 3. Samples were processed in duplicates. Results shown (black bars) are an average of two experiments. Sera are sorted in decreasing percentage of immunoadsorption to immobilized alpha1-210.
FIG. 7 illustrates the immunoadsorption of anti-AChR antibodies from MG sera against immobilized alpha1-210 (black bars), gamma1-218 (gray bars) and a mix of both immobilized alpha1-210 and gamma1-218 (hatched bars). 9 MG sera were assayed for binding to human AChR after incubation of 20 fmoles anti-AChR MG antibodies with alpha1-210 (1 ug), or gamma1-218 (1 ug) or alpha1-210/gamma1-218 mix (containing 1 ug of each subunit) immobilized on CNBr-Sepharose. Incubation with just BSA immobilized to the same insoluble matrix served as a control to calculate the percent immunoadsorption against each of the subunits and the mix of both. After incubation with the Sepharose-immobilized proteins, sera were screened in a typical RIA experiment using TE671 AChR. The percentage of immunoadsorption was estimated as described in the Example 3. Samples were processed in duplicates. Results shown are an average of two experiments.
Immunoadsorption of MG autoantibodies by immobilized alpha1-210. 0.1 mg alpha1-210 mixed with 1.4 mg BSA was covalently bound to 0.5 gr CNBr-Sepharose according to manufacturer's protocol (Amersham). BSA was simply added to increase the protein/Sepharose ratio because the ratio of recombinant protein to Sepharose beads used would otherwise be too small; BSA is not necessary for larger scale experiments. In parallel, 1.5 mg BSA was bound to the same amount of CNBr-Sepharose under the same conditions as control. 2.5 ul MG patient sera were incubated with 0.2 ug immobilized alpha1-210 mixed with BSA, or the same amount of immobilized BSA alone, at 4° C. for 2-3 h (in a total volume of 0.16 ml) followed by centrifugation for bead precipitation. Samples of the supernatants, each containing an amount corresponding to 0.9 ul of these treated MG sera were subsequently used in a typical RIA MG diagnostic test (Lindstrom et al., Meth. Enzymol. 74, 432460, 1981) with human AChR from TE671 cells. The percentage of immunoadsorption was estimated as the ratio between the reduction in immunoprecipitated radiolabeled human AChR after incubation with alpha1-210 and the immunoprecipitated radiolabeled human AChR without incubation with alpha1-210 (incubation with plain immobilized BSA). 64 MG positive sera were assayed for binding to human AChR after incubation with immobilized alpha1-210 or BSA. […] We also tested immunoadsorption of the same set of MG sera by incubating 0.2 ug immobilized alpha1-210 with a fixed amount of anti-AChR antibodies (20 fmoles in variable volumes of MG sera depending on their titer) rather than a fixed serum volume.
Immunoadsorption of MG autoantibodies by immobilized gamma1-218 or epsilon1-219 domains. […]

The test system of test [2] is 125I-alpha-BTX. Format: binding. How it is done: FIG. 2 illustrates the binding of alpha-BTX to alpha1-210 of FIG. 1. (A) Scatchard plot analysis of ^125I-alpha-BTX binding to alpha1-210 fragment. Culture supernatants containing alpha1-210 (40 microliters, 40 ul) were incubated with various concentrations of ^125I-alpha-BTX in 10 ul of PBS-0.2 % bovine serum albumin (BSA), then, after 3 hours incubation at 40° C., the samples were filtered through Whatman DE81 filters, and the bound radioactivity measured on a gamma counter (filter assay). Samples were processed in duplicates. […] (B) The specific binding of the ^125I-alpha-BTX to alpha1-210 fragment was studied in competition experiments involving the simultaneous addition of increasing concentrations of unlabeled toxin. Samples were processed in duplicates. Binding of labeled alpha-BTX in the absence of unlabeled alpha-BTX was taken as the 100% level. (C) Effect of deglycosylation on ^125I-alpha-BTX binding to alpha1-210. In vitro deglycosylation was performed using N-glycosidase F treatment. Aliquots at various reaction time-points were assayed for ^125I-alpha-BTX binding in filter assay experiments. Samples were processed in duplicates (dark columns, N-glycosidase F treatment; light columns, control treatment).
To study the binding of alpha-BTX to alpha1-210 as an indication of correct protein folding, we tested both crude culture supernatants and the purified protein in “filter assay” experiments: Fifty nanograms of purified alpha1-210 or […] of culture supernatant was incubated at […] for 3 h with various concentrations of ^125I-alpha-BTX (specific activity 800,000 cpm/pmole) in a final volume of […] of PBS buffer, pH 7.5, 0.2% BSA. The samples were then diluted with 1 ml of 0.5% Triton X-100 in 20 mM Tris buffer, pH 7.5 (Triton buffer) and immediately filtered through two Whatman DE81 filters prewashed with Triton buffer. The filters were then washed twice with 1 ml of Triton buffer and the bound radioactivity measured on a gamma-counter. Samples without alpha1-210 were used to measure non-specific binding. Specific binding of alpha-BTX was also studied in competition experiments by addition of various amounts of unlabeled alpha-BTX to the sample.

In test [3] the test system is anti-AChR autoantibodies from MG sera. The test is described as follows: Binding of MG patients' autoantibodies to 125I-alpha-BTX-labeled alpha1-210 and hybrid AChR (RIA). More on the design: species or system human. How it is done:
50 MG-positive sera were assayed for binding to alpha1-210 and to a hybrid AChR molecule (HaTbgd) containing human alpha subunit and Torpedo beta, gamma and delta subunits, labeled with ^125I-alpha-BTX. MG sera binding to ^125I-alpha-BTX-alpha1-210 were plotted versus binding to ^125I-alpha-BTX-HaTbgd in a logarithmic scale. […] Samples were processed in duplicates.
70 human sera were screened: 50 MG and 20 healthy controls (5 ul of human sera/sample).

The test system of test [4] is 125I-alpha-BTX. The test is described as follows: 125I-alpha-BTX filter assay of alpha domain expressed in HEK293 cells (SFV vector). Format: binding. Particulars: expressed in HEK293 cells with recombinant SFV-1 vector. How it is done:
[…] Approximately 2×10^6 transfected cells were allowed to express the protein of interest. Cells and medium supernatant were collected after two days. Cells were washed in cocktail buffer (1×PBS pH7.4 with PMSF. 1 mM, aprotinin 5units/ml, leupeptin 5 micrograms/ml, iodoacetamide 1 mM). The medium supernatant (12 ml) was concentrated […] to a final volume of 2.5 ml and dialysed against PBS buffer at 4° C. To extract the receptor, the cell pellet was resuspended in 0.5 ml of cocktail-2% Triton-X100 and the mixture was left at 4° C. with mild agitation. The mixture was subsequently centrifuged at 15000 g for 15 min and the supernatant was tested for ^125I-alpha-BTX binding. The filter assay technique (as described in Example 1) was used to test whether the expressed protein was secreted in the medium supernatant or retained within the cell (in either the cytoplasm or the membrane).
Having established that the cloned product is functional, the recombinant SFV plasmid is linearized at SpeI site, purified and used in an in vitro mRNA synthesis using the mMESSAGE mMACHINE kit (Ambion Inc.) Approximately 20 micrograms of mRNA produced is obtained and used to electroporate 0.7 ml of 10^7 cells/ml HEK293 cells. We only use the recombinant SFV-1 vector without the helper plasmid at this stage. Both the cells and the supernatant are collected two days post-electroporation. […]

A further test concerns alpha1-210. The test is described as follows: Delta1-224 studied together with alpha1-210 in 125I-alpha-BTX binding experiments. More on the design: species or system human.

“Also recorded” adds a separate entry of the source. Where two headings read alike, the source gives them in different places.

The source of these data is patent publication US20050203281A1, “Production of recombinant fragments of muscle acetylcholine receptor and their use for ex vivo immunoadsorption of anti-ch receptor antibodies from myasthenic patients” (priority 2002, published 2005).

B1: alpha1-210 (protein)
chain: SEHETRLVAKLFKDYSSVVRPVEDHRQVVEVTVGLQLIQLINVDEVNQIVTTNVRLKQQWVDYNLKWNPDDYGGVKKIHIPSEKIWRPDLVLYNNADGDFAIVKFTKVLLQYTGHITWTPPAIFKSYCEIIVTHFPFDEQNCSMKLGTWTYDGSVVAINPESDQPDLSNFMESGEWVIKESRGWKHSVTY
modifications: glycosylated at residue 141
For the molecule B1, the “immunoadsorption with fixed amount of anti-AChR antibodies compared with fixed serum volume” value in test [1] (0.2 ug immobilized protein, 20 fmoles antibodies in variable serum volumes) is listed as “identical with the above immunoadsorption results”. For the same molecule, the “percentage of anti-AChR antibodies eliminated, best-adsorbed sera” value in test [1] (0.2 ug immobilized protein) was “more than 60%”; in test [1] (0.2 ug immobilized protein, listed as immobilized alpha domain), “more than 60%”. Also, in test [1] (all sera tested), the “average percentage of anti-AChR antibodies eliminated in all sera tested” value stood at 37%. For the same molecule, in test [1] (another 24 sera (37%) of 64), the “percentage of immunoadsorption, intermediate sera” value was 20-60%. Further, in test [1] (serum no. 3, 1 ug of each immobilized subunit, 20 fmoles antibody), the “immunoadsorption of serum no. 3” value was 54%. Besides, the “amount of antibody eliminated by 1 ug immobilized protein” value in test [1] (titration experiments, 0.25 ml serum of titer 5 nM) is no less than 1250 fmol. In test [1] (titration experiments, MG serum of titer 5 nM), the “volume of MG serum from which 1 ug immobilized protein eliminates the anti-alpha antibodies” value is recorded as “at least 0.25 ml”. Besides, the “125I-alpha-BTX binding after deglycosylation” value with 125I-alpha-BTX [2] is “practically totally lost; also recorded: markedly impaired”. For the same molecule, the “binding of 125I-alpha-BTX (in words)” value with 125I-alpha-BTX [2] is “high affinity”. The Kd (usually the equilibrium constant for the complex coming apart) was 5.1 ± 2.4 nM at 125I-alpha-BTX [2] (read-out: average Kd of 125I-alpha-BTX binding, series of experiments) and 3.3 nM at 125I-alpha-BTX [2] (read-out: estimated Kd of 125I-alpha-BTX binding, representative experiment). In test [3], the “proportion of MG sera with high anti-alpha titers that recognized the protein” value was 66%.

B2: alpha 1-210: extracellular domain of human alpha AChR with ApoE leader and six histidines, expressed in HEK293 cells by SFV vector (protein)
chain: SEHETRLVAKLFKDYSSVVRPVEDHRQVVEVTVGLQLIQLINVDEVNQIVTTNVRLKQQWVDYNLKWNPDDYGGVKKIHIPSEKIWRPDLVLYNNADGDFAIVKFTKVLLQYTGHITWTPPAIFKSYCEIIVTHFPFDEQNCSMKLGTWTYDGSVVAINPESDQPDLSNFMESGEWVIKESRGWKHSVTY
modifications: glycosylated at residue 141
Turning to B2, the “ability to bind 125I-alpha-BTX” value with 125I-alpha-BTX [4] is recorded as “good ability to bind”.

B3: delta1-224: N-terminal extracellular domain of human muscle AChR delta subunit expressed in Pichia pastoris, FLAG epitope (protein)
chain: DYKDDDDKLNEEERLIRHLFQEKGYNKELRPVAHKEESVDVALALTLSNLISLKEVEETLTTNVWIEHGWTDNRLKWNAEEFGNISVLRLPPDMVWLPEIVLENNNDGSFQISYSCNVLVYHYGFVYWLPPAIFRSSCPISVTYFPFDWQNCSLKFSSLKYTAKEITLSLKQDAKENRTYPVEWIIIDPEGFTENGEWEIVHRPARVNVDPRAPLDSPSRQDITFYLIIRRK
modifications: glycosylated
As to B3, in test [1] (immobilized on Sepharose-CNBr), the “immunoadsorption of anti-AChR antibodies (in words)” value is “lower but very significant percentages; also recorded: large fractions”. The “interaction between recombinant subunit domains” value with alpha1-210 is recorded as “temporary weak interaction”.
